Source: patent US20230312742A1 (Y MABS THERAPEUTICS, published 2023)

Tests used:
[1] = biological target: T1, human CD38 antigen (recombinant human CD38 protein) (human, UniProt P28907 43-300, limits assumed); assay: SPR, antibody captured on Protein-L chip, human CD38 in solution
[2] = biological target: T1, human CD38 antigen (recombinant human …); assay: SPR, construct captured on immobilised protein-L (HC30M chip), human CD38 antigen flown over

B1: 8DC-2 (anti-CD38 scFv-(G4S)4-huC825 anti DOTA scFv-linker-P53-linker-His tag) (bispecific antibody)
chain: QVQLQESGPGLVRPSQTLSLTCTVSGFTFTSYGVHWVRQPPGRGLEWIGVMWRGGSTDYNAAFMSRVTMLVDTSKNQFSLRLSSVTAADTAVYYCAKSMITTGFVMDSWGQGSLVTVSSGGGGSGGGGSGGGGSGGGGSGGGGSGGGGSDIQMTQSPSSLSASVGDRVTITCKASEDIYNRLTWYQQKPGKAPKLLISGATSLETGVPSRFSGSGSGTDFTFTISSLQPEDIATYYCQQYWSNPYTFGQGTKVEIKGGGGSGGGGSGGGGSGGGGSHVQLVESGGGLVQPGGSLRLSCAASGFSLTDYGVHWVRQAPGKGLEWLGVIWSGGGTAYNTALISRFTISRDNSKNTLYLQMNSLRAEDTAVYYCARRGSYPYNYFDAWGCGTLVTVSSGGGGSGGGGSGGGGSGGGGSGGGGSGGGGSQAVVTQEPSLTVSPGGTVTLTCGSSTGAVTASNYANWVQQKPGQCPRGLIGGHNNRPPGVPARFSGSLLGGKAALTLLGAQPEDEAEYYCALWYSDHWVIGGGTKLTVLGTPLGDTTHTSGKPLDGEYFTLQIRGRERFEMFRELNEALELKDAQAGKEPGGSGGAPHHHHHH
notes: SADA construct with VL7 and VH10 (published huAT13/5 of Ellis et al.)
Kd [1]: 0.163 µM | koff [2]: 0.001 s⁻¹ | kon [2]: 6400 M⁻¹ s⁻¹
